The source of these data is patent US20250313634A1 (WUXI BIOLOGICS SHANGHAI, published 2025).

Assay [1] deals with T1, mouse PD-L1_ECD.His protein (mouse, UniProt Q9EP73 19-239).
T1 construct: extracellular domain; Bought (Sino Biological, China); also called mPD-L1-His protein
Briefly: ELISA, 2 ug/ml 1.14.4 coated on the plate, mPD-L1-His protein titrated, HRP-anti-His detection.

The target in assay [2] is T2, full-length human PD-L1 expressed on CHO cells (human, UniProt Q9NZQ7 19-290).
T2 construct: whole, on cells; also called CHO-K1 cells expressing human PD-L1; PD-L1 transfected CHO cells
Briefly: FACS competition on CHO cells expressing human PD-L1; competitor mouse Fc-tagged human PD-1. Here is the method: (§1) 3.1 Competition assay by FACS: to examine whether the fully human antibodies can block the binding of PD-L1 to PD-1, the CHO-K1 cells expressing human PD-L1 were incubated with various concentrations of the fully human antibodies at 4° C. for 1 hour. The unbound antibodies were washed away, and then the mouse Fc-tagged human PD-1 was added to the cells. The binding of human PD-1 to PD-L1 expressing cell was detected by using FITC-conjugated goat anti-mouse IgG, followed by the analysis using a BD Biosciences FACSCanto II and FlowJo Version software.
(§2) Then the mouse Fc-tagged human PD-1 was added to the cells. The binding of human PD-1 to PD-L1 expressing cell was detected by using FITC-conjugated goat anti-mouse IgG, followed by the FACS analysis.

The target of a further assay is T3, murine PD-L1 (mouse, UniProt Q9EP73 19-238, limits assumed).
T3 construct: also called mouse PD-L1 (coated on ELISA plates)
Briefly: ELISA, murine PD-L1 coated on the plate, goat anti-human IgG Fc-HRP; antibody concentration not shown. Here is the method: 3.7 Cross-species binding assay: the cross-reactivity of the Ab to cynomolgus and murine PD-L1 was measured by ELISA. Human, cyno and mouse PD-L1 were coated on ELISA plates, respectively. After blocking, fully human antibodies were added into the plate and incubated at room temperature for at least 2 hours. The binding of the antibodies to the coated antigens was detected by using goat anti-human IgG Fc-HRP. The color reaction was developed using TMB substrate and stopped by 2M HCl. The ELISA plates were analyzed at 450 nm using a Molecular Device M5e microplate reader.
For orientation: ELISA stands for enzyme-linked immunosorbent assay.

For assay [3], the target named is T4, hPD-L1_ECD.His point mutant V174A (human, UniProt Q9NZQ7 19-238).
T4 construct: extracellular domain
Briefly: capture ELISA on coated 1.14.4; relative to silent alanine substitutions. A digest of the protocol:
(§3)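 Capture ELISA in which supernatant containing quantified PD-L1 alanine mutant was detected with HRP anti-His antibody. Absorbance was normalized to the average of control mutants. Epitope residues were called at binding fold change <0.55.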

The target in assay [4] is T5, hPD-L1_ECD.His point mutant L106A (human, UniProt Q9NZQ7 19-238).
T5 construct: extracellular domain
The description is as above. A digest of the protocol:
as §3

Assay [5] concerns the target T6, hPD-L1_ECD.His point mutant D26A (human, UniProt Q9NZQ7 19-238).
T6 construct: extracellular domain
The description is as above. A digest of the protocol: as §3

The target in assay [6] is T7, hPD-L1_ECD.His point mutant N183A (human, UniProt Q9NZQ7 19-238).
T7 construct: extracellular domain
The assay is described as above. A digest of the protocol: as §3

The target of assay [7] is T8, hPD-L1_ECD.His point mutant A109G (human, UniProt Q9NZQ7 19-238).
T8 construct: extracellular domain
The description is as above. A digest of the protocol: as §3

Another assay concerns the target T9, recombinant human PD-L1 (human, UniProt Q9NZQ7 19-238, limits assumed).
T9 construct: Used for the SPR analyte (3.2) and for the plate-coated human PD-L1 of the cross-species ELISA (3.7); also called human PD-L1 (SPR analyte); Human PD-L1 coated on ELISA plates
Briefly: surface plasmon resonance per legend paragraph 39 and paragraph 188; column Best fit-KD, mol/L from the legend. From the text: 3.2 Affinity test by surface plasmon resonance (SPR): Antibodies were characterized for affinity and binding kinetics to PD-L1 by SPR assay using ProteOn XPR36 (Bio-Rad). Protein A protein (Sigma) was immobilized to a GLM sensor chip (Bio-Rad) through amine coupling. Purified antibodies were flowed over the sensor chip and captured by the Protein A. The chip was rotated […] and washed with running buffer (1×PBS/0.01% Tween20, Bio-Rad) until the baseline is stable. Five concentrations of human PD-L1 and running buffer were flowed against the antibody flow cell at a flow rate 100 μL/min for an association phase of 240s, followed by 600s dissociation. The chip was regenerated with pH 1.7 H₃PO₄ after each run. The association and dissociation curve was fit to a 1:1 Langmiur binding model using ProteOn software.
Background: Surface plasmon resonance follows binding to a sensor surface in real time, without labels.

Assay [8] concerns the target T2, full-length human PD-L1 expressed on …. Briefly: FACS competition: blocking of mouse Fc-tagged human PD-1 binding to CHO cells expressing human PD-L1. As to the method:
as §1, §2

Assay [9] has the same target. Briefly: FACS on CHO cells transfected with full-length human PD-L1.

T2 sequence (Q9NZQ7 19-290): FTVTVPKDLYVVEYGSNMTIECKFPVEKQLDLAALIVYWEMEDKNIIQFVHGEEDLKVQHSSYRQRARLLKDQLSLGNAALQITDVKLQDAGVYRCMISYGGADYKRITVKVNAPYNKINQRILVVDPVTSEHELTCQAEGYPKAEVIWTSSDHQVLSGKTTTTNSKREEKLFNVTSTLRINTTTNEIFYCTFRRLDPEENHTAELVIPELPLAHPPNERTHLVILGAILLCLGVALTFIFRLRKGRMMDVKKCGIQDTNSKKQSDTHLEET
T9 sequence (Q9NZQ7 19-238 limits assumed): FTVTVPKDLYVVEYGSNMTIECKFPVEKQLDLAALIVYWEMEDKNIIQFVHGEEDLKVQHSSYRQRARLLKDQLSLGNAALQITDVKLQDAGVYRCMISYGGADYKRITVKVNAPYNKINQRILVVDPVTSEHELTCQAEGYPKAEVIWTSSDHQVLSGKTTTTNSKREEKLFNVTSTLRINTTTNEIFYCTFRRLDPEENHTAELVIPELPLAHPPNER
T4 sequence (Q9NZQ7 19-238 V174A): as the sequence (Q9NZQ7 19-238 limits assumed) above, with V156A counted along it
T1 sequence (Q9EP73 19-239): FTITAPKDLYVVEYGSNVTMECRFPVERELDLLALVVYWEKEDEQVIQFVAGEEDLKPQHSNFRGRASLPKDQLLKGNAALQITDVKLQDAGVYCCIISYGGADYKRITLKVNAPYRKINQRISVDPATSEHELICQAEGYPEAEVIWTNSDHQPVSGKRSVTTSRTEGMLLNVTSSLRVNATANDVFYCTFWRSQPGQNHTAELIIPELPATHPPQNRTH
T7 sequence (Q9NZQ7 19-238 N183A): as the sequence (Q9NZQ7 19-238 limits assumed) above, with N165A counted along it
T5 sequence (Q9NZQ7 19-238 L106A): as the sequence (Q9NZQ7 19-238 limits assumed) above, with L88A counted along it
T6 sequence (Q9NZQ7 19-238 D26A): as the sequence (Q9NZQ7 19-238 limits assumed) above, with D8A counted along it
T8 sequence (Q9NZQ7 19-238 A109G): as the sequence (Q9NZQ7 19-238 limits assumed) above, with A91G counted along it
T3 sequence (Q9EP73 19-238 limits assumed): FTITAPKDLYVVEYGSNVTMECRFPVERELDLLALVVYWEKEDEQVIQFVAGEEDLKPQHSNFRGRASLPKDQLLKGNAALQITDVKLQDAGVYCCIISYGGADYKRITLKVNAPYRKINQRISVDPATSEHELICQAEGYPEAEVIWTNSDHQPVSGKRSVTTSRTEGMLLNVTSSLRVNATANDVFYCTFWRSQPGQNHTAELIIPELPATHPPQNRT

B1: 1.14.4 (antibody, V domains shown)
VH: EVQLLESGGGLVQPGGSLRLSCAASGFTFSSYAMSWVRQAPGKGLEWVSGISGSGGFTYYADSVKGRFTISRDNSKNTLYLQMNSLRAEDTAVYYCAKPPRGYNYGPFDYWGQGTLVTVSS
VL: SYVLTQPPSVSVAPGQTARITCGGNNIGSKSVHWYQQKPGQAPVLVVYDDSDRPSGIPERFSGSNSGNTATLTISRVEAGDEADYYCQVWDSSSDHVVFGGGTKLTVL
notes: Fully human monoclonal antibody with a human constant region of IgG4 isotype
On to B1, for which the binding result (in assay [1]; with murine PD-L1) was “no binding” throughout. In addition, in [2], the IC50 was ~10 nM. Besides, the fold change in [3] is 0.983 fold; in assay [4] it was 0.732 fold; in [5], 0.963 fold; in assay [6], 0.944 fold; in assay [7] it was 0.797 fold. In addition, the Kd in the assay with recombinant human PD-L1 was 0.392 nM. In assay [8], the “IC50 (read off the curve)” value is ~2 nM. Further, the “EC50 (read off the curve)” value in assay [9] is ~1 nM.

A word on the IC50: it is the concentration that gives 50% inhibition. Read a low IC50 as greater potency in that assay. Broadly, the Kd is a measure of binding affinity in units of concentration. As usually defined, the EC50 (read off the curve) is the concentration that produces a half-maximal response. The low end stands for a more potent agent, the high end for a less potent agent.
